From patent US20130302346A1 (LEXICON PHARMACEUTICALS, published 2013) come the findings set out here.

Where a chain is given by its changes, count along the chain named.

Sequences and labels used below:
T1: Human NOTUM (human, UniProt Q6P988 20-496)
T1 sequence: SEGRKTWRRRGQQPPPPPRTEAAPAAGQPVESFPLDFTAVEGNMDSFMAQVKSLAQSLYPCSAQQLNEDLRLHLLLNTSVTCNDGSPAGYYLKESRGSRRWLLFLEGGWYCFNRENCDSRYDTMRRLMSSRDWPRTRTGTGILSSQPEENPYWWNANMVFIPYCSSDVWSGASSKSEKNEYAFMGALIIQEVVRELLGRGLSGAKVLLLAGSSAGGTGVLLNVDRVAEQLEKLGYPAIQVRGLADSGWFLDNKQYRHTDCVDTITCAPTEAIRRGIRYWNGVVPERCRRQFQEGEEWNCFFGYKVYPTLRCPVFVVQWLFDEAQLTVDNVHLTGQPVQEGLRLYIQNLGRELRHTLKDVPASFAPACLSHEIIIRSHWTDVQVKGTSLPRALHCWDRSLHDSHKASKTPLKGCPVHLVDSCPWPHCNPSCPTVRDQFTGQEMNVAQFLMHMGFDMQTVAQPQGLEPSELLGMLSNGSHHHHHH

T2: M-H
T2 construct: Drawn on the sheet as mouse N-terminal part and human C-terminal part; Conditioned medium from transfected HEK293F; also called Mouse-human chimeric NOTUM
T2 single chain: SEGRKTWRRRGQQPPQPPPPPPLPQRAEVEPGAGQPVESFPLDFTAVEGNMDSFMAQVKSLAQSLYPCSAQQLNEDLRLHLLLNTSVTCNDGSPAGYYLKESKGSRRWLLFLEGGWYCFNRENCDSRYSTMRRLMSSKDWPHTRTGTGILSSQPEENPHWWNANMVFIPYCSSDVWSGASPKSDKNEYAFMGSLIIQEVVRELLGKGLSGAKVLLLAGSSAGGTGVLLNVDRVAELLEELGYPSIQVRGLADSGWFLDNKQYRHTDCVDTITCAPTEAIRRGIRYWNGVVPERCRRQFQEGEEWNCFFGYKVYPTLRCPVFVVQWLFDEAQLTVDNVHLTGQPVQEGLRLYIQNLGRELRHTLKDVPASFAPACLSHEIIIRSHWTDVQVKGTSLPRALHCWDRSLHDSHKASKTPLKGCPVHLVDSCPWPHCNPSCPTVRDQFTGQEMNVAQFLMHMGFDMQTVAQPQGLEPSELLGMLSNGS

T3: H(S232A)
T3 construct: The catalytic triad serine is drawn as A on the sheet; also called Human NOTUM S232A
T3 single chain: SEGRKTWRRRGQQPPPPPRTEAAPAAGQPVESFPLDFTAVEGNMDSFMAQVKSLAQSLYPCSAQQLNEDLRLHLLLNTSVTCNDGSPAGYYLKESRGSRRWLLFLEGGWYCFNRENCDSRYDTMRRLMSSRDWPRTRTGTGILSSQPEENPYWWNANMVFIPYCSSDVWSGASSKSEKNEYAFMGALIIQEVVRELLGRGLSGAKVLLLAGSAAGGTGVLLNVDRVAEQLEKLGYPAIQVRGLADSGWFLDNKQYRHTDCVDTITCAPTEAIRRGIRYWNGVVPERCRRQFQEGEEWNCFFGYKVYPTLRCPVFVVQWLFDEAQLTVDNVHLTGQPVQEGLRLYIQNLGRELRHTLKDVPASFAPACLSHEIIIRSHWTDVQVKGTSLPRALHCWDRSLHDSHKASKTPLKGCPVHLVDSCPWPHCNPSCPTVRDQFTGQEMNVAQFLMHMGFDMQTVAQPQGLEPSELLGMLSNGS

T4: M-H-M
T4 construct: Drawn on the sheet as mouse up to the M177 line, a human middle segment, then a mouse C-terminal part; Conditioned medium from transfected HEK293F; also called Mouse-human-mouse chimeric NOTUM
T4 single chain: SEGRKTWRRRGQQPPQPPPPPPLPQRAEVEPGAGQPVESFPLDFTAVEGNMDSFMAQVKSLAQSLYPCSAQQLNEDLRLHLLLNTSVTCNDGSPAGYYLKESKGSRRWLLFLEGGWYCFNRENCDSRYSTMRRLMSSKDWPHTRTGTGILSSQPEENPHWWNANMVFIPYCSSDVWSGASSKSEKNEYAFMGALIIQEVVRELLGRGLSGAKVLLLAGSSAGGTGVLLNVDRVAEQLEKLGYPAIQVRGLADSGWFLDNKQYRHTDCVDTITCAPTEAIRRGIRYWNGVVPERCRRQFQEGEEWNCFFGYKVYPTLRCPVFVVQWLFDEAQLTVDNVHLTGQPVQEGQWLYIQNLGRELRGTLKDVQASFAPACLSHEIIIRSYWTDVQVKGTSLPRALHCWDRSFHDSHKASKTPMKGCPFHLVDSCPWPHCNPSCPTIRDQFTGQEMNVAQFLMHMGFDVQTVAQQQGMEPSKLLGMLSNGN

T5: H(N96D)
T5 construct: Human NOTUM with N96D, marked inside the Q47-M177 box on the sheet; also called Human NOTUM N96D
T5 single chain: T3 single chain with N77D, A213S

B1: MAb 1.802 (antibody, V domains shown)
VH: EVQLVESGGGLVKPGGSLKLSCAASGFTFSDYGMHWFRQAPEKGLEWVAYISSGSRTVYYADTVKGRFTISRDNAKNTLSLQMTSLRSEDTAMYYCARKHYNGGYFDVWGTGTTVTVSS
VL: DIVLTQSPASLAVSLGQRATISCRASKIVSTSGYSYMHWYQQKPGQPPKLLIYLASNLESGVPARFSGSGSGTDFTLNIHPVEEEDAATYYCQHSRELPPTFGSGTKLEIKR
notes: Mouse monoclonal antibody from Campaign 1 (raised against human NOTUM), IgG1
B2: MAb 1.815 (antibody, IgG1, V domains shown)
VH: DVQLLESGGGLVQPGGSRKLSCAASGFTFSDFGMHWVRQAPEKGLEWVAYSSSGGTTVYYADTVKGRLTLSRDNSKNTLFLEMTSLRSEDTAMYYCARASYDGGYFDCWGQGTSLTVSS
VL: B1 VL with I28S, M37I, N57D, T73A, D74A, Q93H, P100F
notes: Mouse monoclonal antibody from Campaign 1, IgG1
B3: MAb 1.846 (antibody, IgG2b, V domains shown)
VH: B1 VH with G10D, F37L, R56T, V58L, Y59S, D62N, V64M, N77K, M93I, H100N
VL: B1 VL with A12V, I28S, T31E, E85G, A88T, E97V
notes: Mouse monoclonal antibody from Campaign 1, IgG2b

The target of one experiment is T1, Human NOTUM. Briefly: cell-based or functional assay.
For the molecule B1, the “OPTS IC50 (nM; human NOTUM)” value was 6.44 nM and the “Wnt signaling IC50 (nM; human NOTUM)” value is 5.71 nM.

With B2, the “OPTS IC50 (nM; human NOTUM)” value amounted to 7.62 nM and the “Wnt signaling IC50 (nM; human NOTUM)” value is 6.88 nM.

As to B3, the “OPTS IC50 (nM; human NOTUM)” value turned out to be 10.1 nM and the “Wnt signaling IC50 (nM; human NOTUM)” value came to 1.7 nM.

Another experiment has as its target T2, M-H. The experiment in a line: ELISA on conditioned medium of HEK293F transfected with the NOTUM construct (Example 6.7). An excerpt:
(§1) The sequences of those proteins are shown in Section 7 (Table of Sequences). The conditioned media were used in ELISA format to determine antibody specificity. […] Within this region, mouse and human NOTUM differ at five positions (R115K, D141S. R150K, R154H, and Y171H, based on the human sequence numbering). Human NOTUM point mutants were generated by transient transfection of constructs expressing human NOTUM with the mouse amino acid at each of these five positions and the point mutants were all shown to be functional in the OPTS assay.
With B1, the binding result is listed as “no binding”.

On to B2, for which the binding result is recorded as “no binding”.

In the case of B3, the binding result is recorded as “no binding”.

For the next experiment, the target named is T3, H(S232A). Described as above.
From the text: as §1
As for B1, the binding result is “binds”.

With B2, the binding result is listed as “binds”.

Turning to B3, the binding result is listed as “binds”.

The target of another experiment is T4, M-H-M. The description is as above.
From the text: as §1
Regarding B1, the binding result is “no binding”.

For B2, the binding result is listed as “no binding”.

As to B3, the binding result is listed as “no binding”.

A further experiment has as its target T5, H(N96D). Described as above.
From the text: as §1
As to B1, the binding result was “binds”.

On to B2, for which the binding result is “binds”.

Consider B3, for which the binding result is listed as “binds”.
